Values quoted from earlier work in patent US20250304973.

Target: alpha-thrombin (native) (Homo sapiens) (UniProt P00734+P00734)
Settings: CITED; linker not given

For HD1-22 bivalent (HD1 linked to HD22), the Kd is given as 0.65 nM.
